The target of assay [1] is NOTCH on human CD4+CD25- effector T cells. The assay can be described thus: cell-based or functional assay.
A further assay relates to TGF-βRII RNA expression. The assay can be described thus: Quantitative real-time PCR of TGF-βRII transcripts in CD4+CD25- T cells. The format is cell-based, human. Conditions: coated anti-CD3 and DL-4 or Jagged-1 for 3 hours, in the presence of GSI. As to the method:
FIG. 3: TGF-βRII expression on effector T cells after NOTCH ligands exposure • A) CD4^+CD25^−T cells were purified using Miltenyi microbeads from PBMC and cultured for 3 hours in coated wells with anti-CD3 (200 ng/ml) and NOTCH ligands (5 μg/ml) or IgG control (5 μg/ml). Quantitative real-time PCR was performed to measure the transcripts levels of TGF-βRII. Data shown are mean±SEM and are representative of 4 independent experiments. * indicates P<0.05. • B) Protein levels of TGF-βRII in CD4^+CD25^−T cells stimulated to DL-1, DL-4 and Jagged-1 using FACS analysis. Mean of fluorescence are represented±SEM. * indicates P<0.05.
CD4^+CD25^− T cells were cultured for 3 hours in coated wells with anti-CD3 (200 ng/ml) and NOTCH ligands (5 μg/ml) or IgG control (5 μg/ml). Total RNA was extracted with Trizol (Invitrogen) and purified by chloroform extraction. RNA was then reverse transcribed using 1 mM oligodT and the Superscript™ HH Rnase H-reverse transcriptase (Invitrogen Life technologies) according to the manufacturer's instructions. Quantitative PCR was performed in a LightCycler System (Roche diagnostics) using a SYBR Green PCR kit from Roche Diagnostics. The cDNA input for each population was normalized to obtain equivalent signals with Splicing Factor 3A1 (SF3A1) used as housekeeping gene. Primers used were: […]
Active TGF-β mediates its biological functions by binding to TGF-β type I and type II receptors (TGF-βRII). Therefore, the effects of NOTCH activation on TGF-βRII expression of effector T cells were first investigated. […] This effect is abrogated in the presence of GSI (P<0.05 for comparison with culture performed without GSI vehicle).
(In qPCR the cycle at which signal appears reflects the starting amount.)

The subject of assay [2] is CD4+CD25- T cell proliferation. In words: Suppression assay: CD4+CD25- T cells co-cultured with Treg plus anti-CD3, with or without g-secretase inhibitor, [3H]thymidine incorporation. The format is cell-based, human. The settings on record: for Treg-mediated suppression (percentage of inhibition of CD4+CD25- T cell proliferation): GSI added at the beginning of the coculture (10 μM), anti-CD3 1 μg/ml, 5 days, mean+/-SD. As for the experimental part:
FIG. 1: NOTCH signalling is involved in Treg mediated inhibition of anti-CD3 stimulated CD4^+CD25^− T cell proliferation • A) Various ratio of CD4^+CD25^− T cells and CD4^+CD25^high T cells were cultured for 5 days in coated wells with anti-CD3 (1 μg/ml) in the presence or not of inhibitor of g-secretase (GSI 10 μM). Percentages of inhibition were calculated from the raw data using the equations: 1—(mean cpm of co-culture wells divided by mean cpm of CD4^+CD25^− cells cultured alone)×100. The data represent the mean±SEM and are representative of 5 independent experiments. * indicates P<0.05. • B) CD4^+CD25^−T cells were cultured for 18 hours in coated wells with anti-CD3 and NOTCH ligands (5 μg/ml) or IgG control (5 μg/ml). Then, T cells were washed and incubated for 5 days in coated wells with anti-CD3 in the absence or presence of Treg at ratio 1:8. The data represent the mean±SEM of inhibition of T cell proliferation of 5 independent experiments.
Peripheral blood mononuclear cells were separated by Ficoll-Hypaque centrifugation (Amersham Biosciences) from buffy coats obtained from healthy blood donors (EFS, Créteil). CD4^+ CD25^− T cells and CD4^+CD25^high T cells were isolated using a CD4^+ T cell enrichment column and a human CD4^+CD25^+ Treg isolation kit purchased from Miltenyi Biotec. CD4^+CD25^− cells and CD4^+CD25^+ cells were enriched to greater than 95% purity. […]
A total of 2.5×10^4 CD4^+CD25^− T cells were cultured with various ratios of CD4^+CD25^high cells and 1 μg/ml of anti-CD3 for 5 days, in the presence or absence of 10 μm of the gamma-secretase inhibitor Compound E. A total of […] [^3H] thymidine (Amersham Pharmacia) was added to the wells during the last 16 hours of culture. The cells were then harvested and assessed for [^3H] thymidine incorporation using a liquid scintillation counter. Results were expressed as mean cpm of quadriplicate culture wells.
Percentage of inhibition was calculated as follows: 1−(mean cpm of co-culture wells divided by mean cpm of CD4^+CD25^− cells cultured alone)×100. […]
For orientation: Uptake of a labelled nucleoside into DNA is a usual measure of proliferation.

In the case of “DL-4-Fc (from UniProt Q9NR61 27-529) (Fc fusion)”, in assay [1], the Percentages of inhibition of cell proliferation (CD4+CD25- T cells pre-exposed to ligand, co-cultured with Treg at ratio 1:8) amounted to 64.2%; the TGF-βRII RNA expression, fold increase against IgG control (real-time PCR, 3 hours) is 4.4 fold; the expression of TGF-βRII on CD4+CD25- T cells after 48 hours on ligand (flow cytometry, MFI; IgG control MFI 53) came to 166 MFI; the mean inhibition of T cell proliferation (co-culture with Treg at ratio 1:16 on immobilized ligand) was determined as 47%. The same compound showed a percentage of inhibition of CD4+CD25- T cell proliferation with anti-CD3, ligand and TGF-β (0.1 ng/ml) in assay [1] of 74.1%.

Turning to “Jagged-1-Fc (from UniProt P78504 34-1067) (Fc fusion)”, in assay [1], the Percentages of inhibition of cell proliferation (CD4+CD25- T cells pre-exposed to ligand, co-cultured with Treg at ratio 1:8) was 65%; the TGF-βRII RNA expression, fold increase against IgG control (real-time PCR, 3 hours) stood at 2.8 fold; the expression of TGF-βRII on CD4+CD25- T cells after 48 hours on ligand (flow cytometry, MFI; IgG control MFI 53) was 130 MFI; the mean inhibition of T cell proliferation (co-culture with Treg at ratio 1:16 on immobilized ligand) was 65%. The percentage of inhibition of CD4+CD25- T cell proliferation with anti-CD3, ligand and TGF-β (0.1 ng/ml) in assay [1] is 87.8%.

`C[C@H](NC(=O)Cc1cc(F)cc(F)c1)C(=O)N[C@H]1N=C(c2ccccc2)c2ccccc2N(C)C1=O` [GSI, Compound E]: the “Effect of GSI on the DL-4 / Jagged-1 induced increase in TGF-βRII RNA expression” value with TGF-βRII RNA expression was “abrogated”. Further, the entries for the “Treg-mediated suppression (percentage of inhibition of CD4+CD25- T cell proliferation)” value in assay [2] (Treg/Effector ratio 1:4) and in assay [2] (Treg/Effector ratio 1:8) were 46.9% and 49.3%, respectively. Further, in assay [2] (no Treg, data not shown), the “Effect on proliferation of CD4+CD25- T cells cultured alone” value is given as “did not affect the proliferation”.

Consider “DL-1-Fc (from UniProt O00548 18-545) (Fc fusion)”, for which, in assay [1], the Percentages of inhibition of cell proliferation (CD4+CD25- T cells pre-exposed to ligand, co-cultured with Treg at ratio 1:8) came out at 64.8%; the expression of TGF-βRII on CD4+CD25- T cells after 48 hours on ligand (flow cytometry, MFI; IgG control MFI 53) worked out at 85 MFI; the percentage of inhibition of CD4+CD25- T cell proliferation with anti-CD3, ligand and TGF-β (0.1 ng/ml) was found to be 42.9%.

The record behind these values is patent US20150140043A1, “IMMUNOMODULATORY METHODS USING NOTCH AGONISTS” (INSTITUT NATIONAL DE LA SANTE DE LA RECHERCHE MEDICAL …, priority 2012, published 2015).
